Consider 70 sequences from the domain aggregation screens of Martell et al. (2025).
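Note: 20 min heating vs room temperature control held 20 min.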

This series can be described thus: soluble fraction after stress (log2 fold change); higher = more stays soluble; pooled small domains, quantitative proteomics. The note with it: stress: 75 degC.
On to “HMITALLPGTVLIREFDGRDYHVTVATDGRFEMDGHKYPSLSAVAKHITGTQWSGPAFFGLN”, for which the “soluble fraction (log2)” value is -1.06.

Turning to “HMITASNYFIEVERIGIETLPETLKKGHDLVVKSTSNGTNWANYQTSEGIKKVIDLYFQKLNEYANTV”, the “soluble fraction (log2)” value is -1.83.

Regarding “HMITDSSEIEAMVDALVKENPGQAEQYKDGNMKVAGWFIGQIMKVSKGKANPQLVGDLLKKKLG”, the “soluble fraction (log2)” value came out at 0.197.

For the sequence “HMITERVPVPDLTGMPLMEAIKTLNSSKLQYQVVGSVIEGDENRIIDQTPKPDIMVSEKSIVLLYLETYRG”, the “soluble fraction (log2)” value is -2.6.

In the case of “HMITIDADTGKRVYTRKEVADLVGASTQSIRLWEDAGAIPASVRDEGGYRYWYEEDLEAIKAYAS”, the “soluble fraction (log2)” value is -0.203.

As for “HMITKAIELAEEAEKETVWLGVWEHNHPAQKFYQSLGFVKTDEHDFYMGNERHTDYTMTKQLK”, the “soluble fraction (log2)” value is -0.344.

In the case of “HMITLKKRRQEAILEIIEKYDLSTQDELLQKLKDSGFDATQATVSRDIKELRLVKTMGANGQYKYAVT”, the “soluble fraction (log2)” value was -0.881.

Take “HMITMADKIDTALSEMAANNEKINVSQVAKRLGISNSAIYKFNPEKIPDIQTAQKRQKHKAEAIAVGTEN”: the “soluble fraction (log2)” value is -0.0393.

“HMITMWYYKKDGNIIGPASARKIASMRELGIITDSTPVSRKRNAKNWETFGGLSEKINLESSQWD”: the “soluble fraction (log2)” value is -1.98.

Take “HMITNEDINIKKLLVVMKDTPLSANEIMDKLNIKSKETLRNMYLDPAIKKGLINLTIPDKPTSKNQKYYK”: the “soluble fraction (log2)” value was -0.426.

For “HMITNESEIERIVEAIISKNPESIAQYRSGITKVLGFLVGQVMKETKGRANPALVNRIIISKME”, the “soluble fraction (log2)” value is -0.899.

With “HMITSELALVKLVVKGANRVEALRVAETFRARALDVTLSSFVFELTGKPSKLDAFIGLMRSLGDTEILKR”, the “soluble fraction (log2)” value is -4.17.

For the sequence “HMIVEIVPSALHGERVDRIVAFILDVSRSVASGLVERGAVHVDGSVETSGKVRLVEGQEVSVDPSQVPG”, the “soluble fraction (log2)” value is -0.69.

As to “HMIVNEQEQTFIKAMRDDDFNTILELKMKGYQPSDNVLKSLQPDISSTTFIAAAKIFQMERMLK”, the “soluble fraction (log2)” value was -0.502.

Regarding “HMIVSVPNVRGMGESKAAAALQNRGLLVSIDYESSTSASQGEVIRQSISPGTEVTKGSSITIIIAVSPN”, the “soluble fraction (log2)” value was -1.56.

Turning to “HMIVVMQPGATKEQVQAVIDRVAEFGFQTKLAPGAERMVIGVVGSPLPDTLKEALERLPGVEEVIRVSKR”, the “soluble fraction (log2)” value is -0.379.

Consider “HMIVVTSPQVTDERIAEIVAFIEKHGVQAHVSRGTDRTVIGIIGKADPVLAEHLRSMQGVENVIKIS”, for which the “soluble fraction (log2)” value is -0.167.

Regarding “HMIYKLTLLRDLPEAKAGFDFYLRGGLASHDGEEWFSWVTREPIYARLYWLYVEKREEWVLVEETDI”, the “soluble fraction (log2)” value is -4.51.

Regarding “HMIYMIDPNDEIAVKLDEIYQRYLNRTIDPEGLIFFYNQIRNAQMGYSDVEKRILESPEYVSIPK”, the “soluble fraction (log2)” value was -0.53.

For “HMIYQNVINLLKNRLNSSIYNIGDLLPSEKELAEHYDVSRNTLRKALKTLEEEGMIERRHGSGTYLRNK”, the “soluble fraction (log2)” value is -1.67.

For the sequence “HMIYWGTMVDKIYEVLSLAGKPLSLMEIYQQVKVFFPNSTKSSIEASMRLDARHRFKYDVEGHVYSLVD”, the “soluble fraction (log2)” value was -3.44.

Consider “HMIYYTEEELVKRYIDFSNYLGKKEGASDVDFKKYAVEFGIPSRDHYNRKFITLFNLKIKAGYKPIRH”, for which the “soluble fraction (log2)” value was -0.835.

For “HMKAAQDQDQAATLLQKATGVNQDQAKLAATVLFKEQSVTPIRQAIASGDYYQAYQDAKSLQQQ”, the “soluble fraction (log2)” value worked out at 0.221.

As for “HMKADIEQVQRAFDTLDPKNQQLVLDAMKAATAELDPNSDQFKTNTEFINDNQKALDRHAKAS”, the “soluble fraction (log2)” value came to 0.122.

For “HMKAGAVFNEGDVLYPKIGGLKLMAAAGEGGKVVATLAKTDEMIYMGEEQSGFVKVESGSGSGWVKKILVA”, the “soluble fraction (log2)” value came out at 0.438.

For “HMKAGEDAVQKAVLEAVAESAAAVADYKAGSERALNFIVGKVMKKTRGKASAAEVHRLVREEVDR”, the “soluble fraction (log2)” value stood at 0.0653.

On to “HMKAILHQESRSGFANATVIGGLDKFLDTNWNQLSKYIKKIETPYSDRSLEDRKIWISTILGILSTEI”, for which the “soluble fraction (log2)” value is 0.279.

In the case of “HMKALHEEIAEKIQEQILRSNLAPGDKLDTELELAARYGVSRSTIRQALIQLESAGLIDRLHGRGTFVAD”, the “soluble fraction (log2)” value turned out to be 0.59.

Turning to “HMKAPDSQYKPLTDFQTDASFQKLDAYLRNRYPAMLANAVVYDVLRTPDAISYRVNYQVDNKMITINAAVT”, the “soluble fraction (log2)” value was -1.66.

For “HMKAPLTFVIEGKEYEAFDQYKTGAELKQLAGIPLDTELFLSISKPYQDELIENEKQVNLARPETEYFFVK”, the “soluble fraction (log2)” value is 0.522.

For the sequence “HMKAQTVPQFVGMTMTEAEEKASELGITLIEGAVVDSVEPKDTILTQDVDEGTEITGKMEIMVTISS”, the “soluble fraction (log2)” value amounted to 0.324.

Turning to “HMKARLRRVFQIYYGDAYSIMKALKETFPLQTIVHEPRTNSIVVDTPDEETATKIGDVVSAL”, the “soluble fraction (log2)” value is -0.771.

On to “HMKDANIQIGKRLREARLNMNLEKSEIADVLGVTVEHYRKLEAGVMGISVDKVLTLYHKYGIDPTYLITG”, for which the “soluble fraction (log2)” value was -3.36.

Turning to “HMKDEGSLKVIGQMVVIGIPQSEAKRFANTYTVAQIRAALQYTQKRSEDKNASKLENVAAYFRQALVRNWG”, the “soluble fraction (log2)” value is -2.57.

“HMKDHKSKWMAKTELDSIAKNLSKKHAISLDYEEDGTRFYAGGQSPLGIGRLFTVFVAPRNGHWSDQLR”: the “soluble fraction (log2)” value was found to be 0.194.

For the sequence “HMKDLIGEAKAKELALGHAKLSASDVTFIHVELDWENGRRVYDVEFYSGAKEYDYEIDAKTGEIVSFDY”, the “soluble fraction (log2)” value was -1.23.

Turning to “HMKDLQHLVGEKGTTVTPLRPSGIALIKGSRYDVVSEGSFIQQGVAVEVIKVEGRRVVVSPLQED”, the “soluble fraction (log2)” value was -0.722.

For “HMKDLSMPDVMGSSLNDAKKALTELGIMDITVRYVESGSSEGSIVGMEPPAGSKFAADGKVVLQVSSGS”, the “soluble fraction (log2)” value came to 0.542.

Take “HMKDMKISTQNILKELATNYPDQTAFRKNVIESTAKSMGYTGKDFYPMLTAETRVKIGTYDLSALLQTV”: the “soluble fraction (log2)” value was -0.38.

For the sequence “HMKDPSFELMSVAESFYRSGNVDHAVYALEKYLEVYADGDYTDRAHDLLSQARKGLTYPHGYPPLQI”, the “soluble fraction (log2)” value is -1.26.

For “HMKDRDISNAVLNILSKDSDHNYNYKQIASVLGVKDPFVRKRIVSVLAQLTKNGQLEEISRGKYQIKN”, the “soluble fraction (log2)” value is -0.478.

Regarding “HMKDRNISSSVLEILSKDPDHTYNYKQIAALLGVKDAFIRKRIVTLLAQLAKDGHLDEISRGKYQIK”, the “soluble fraction (log2)” value was -1.22.

Take “HMKDVVAPMSGRVVRLMVAAGDEVVKRQALVVVEAMKMENVLTAPKEGRIKKVPVREGMTVEVGQTLVSFE”: the “soluble fraction (log2)” value was -1.88.

“HMKDYKSALQELIQSGDKRVISYHTLKETGPSHNREFEAAVKLDGNIILGVGKGKTKKEAEQNAAHEALKK”: the “soluble fraction (log2)” value was -0.0221.

“HMKDYKSSLQERVQAVGGGQLIYRVNREEGPDHSKTFYMDLFLGDRLIGTGSGRNKKQAEQQAAKEAIERG”: the “soluble fraction (log2)” value is -0.283.

Regarding “HMKDYKTIFQELIQKKHKTSPIYKSYEYNDMFKAEVYVNDKSFADGIGKSKKEAETDAAKKALEKIEMA”, the “soluble fraction (log2)” value was -0.0428.

“HMKDYQGEISVVASGERIDVYLFNYFNLFSRTKIKNHIKNGNILVNENIISPSYILKQNDKIAFNLGAPY”: the “soluble fraction (log2)” value was -2.27.

In the case of “HMKDYQGNILIQSEGDRIDKFLFKYFNSFSRTKIKNHIINGNILVNDKNTIPAYVLKINDKISYDLSTSVK”, the “soluble fraction (log2)” value was -1.9.

“HMKEAITVIGGKNNITFDASAQAEIGIYSMDGVQIQKKTISDNERIDLPAGMYVVTVKTGQANVSKVVVV”: the “soluble fraction (log2)” value was -0.553.

On to “HMKEDSTIIERIISNLSSASLKTQKAFEYKLTDLMFRFSEGEYEWSSAMEVIREELLPFLNK”, for which the “soluble fraction (log2)” value is 0.0891.

As for “HMKEETEMVTIPDVTGKPLTEAANLLREAKLDYLAESTGTSVTKQMPLPGAEVMVNTTVLLYTG”, the “soluble fraction (log2)” value was found to be 0.157.

Regarding “HMKEEVMVPNVVGKELSAALLEMQVKELYPKLQLKYSNFVDDKGTVLEQSPPAGSIVKAGRRINLVVSRGA”, the “soluble fraction (log2)” value was determined as 0.106.

For “HMKEIKAPNKINAHLIEEWRSQHPTELFPEEKVDLIYYKGEEYYFVIEEKNELGEIEEWYFAYDGGIDYV”, the “soluble fraction (log2)” value came out at 0.372.

For the sequence “HMKEILTNESIIQFVKDKVSEEQIIYKINNSPIDFKLDVNSMVSLAKQNVSSTIIIAMENAMNN”, the “soluble fraction (log2)” value was -1.28.

Turning to “HMKELLQEMIMDILRAIASPNIDIKRKTLDLVLDLITPRNIDNVTGMLKTEVVKSQSENTSDVG”, the “soluble fraction (log2)” value is -1.58.

In the case of “HMKELTYSDFRKAYPDIQGNLFGMAERYITALDWTEVAAKVETDEELRKERDIFYLVKTYIRKYVQ”, the “soluble fraction (log2)” value is -1.86.

For the sequence “HMKELVAGQTVRVHHSIGFGQTGTVTALNSLKTTLPNGLRTNTASILFQNNEKVVLPISNFDIIES”, the “soluble fraction (log2)” value was -0.0164.

“HMKELVEDFASRISNARQSKGWNQSELAKRMAETVNVVKSAESGKSPTDSVIKKLERVLGIILM”: the “soluble fraction (log2)” value is -0.778.

In the case of “HMKEQLITVYVSGAVARPGLYELPAGIRAQEAVEAAGGFTEAANHEKVNLAKKLKDGSQVNVPALK”, the “soluble fraction (log2)” value was -0.122.

Take “HMKEQYDLNDREQQFISLVANGLNNKEIAETLFLSEGTVRNYLSNLLDKLGLRDRTQLAIFFYQHL”: the “soluble fraction (log2)” value was -2.01.

In the case of “HMKERLLDPYKDFIVNYLQKYPYTPAAVMHDKLKESYPDFPKVDPKTIYNFVMLLRRDFNIPKV”, the “soluble fraction (log2)” value was -0.842.

For “HMKETERKILQAVLGLPLKYRDVIHLFYYEEMSVKEIAEVLHRQESTVTSQLTRARGILKKNL”, the “soluble fraction (log2)” value was determined as 0.264.

In the case of “HMKETLSDTVSRKLEDMITTQMKAGNRLPTEMVLAEMYSVGRSTIRESLKALSSKGLIVRKKDGTFVSDRV”, the “soluble fraction (log2)” value is -0.422.

Turning to “HMKEVKAPMPGMVLRVEVAPGQEVQEGDPLLVLEAMKMENNLKSPASGTIKSVHVEAGKAVEKGAVLVVF”, the “soluble fraction (log2)” value is -0.0661.

As for “HMKEVKRDQVIEAARKLFHQFGFKKVSMDEIAKEAGVTKKTIYMYFESKEELLKYFIQEEISN”, the “soluble fraction (log2)” value was -0.373.

On to “HMKEVVKVTITPSEKLKSQYPDALVSIDGKFYDLGILNNPVEFYMDKDHKISIIWSTAELVESFRI”, for which the “soluble fraction (log2)” value was -0.000631.

“HMKEYRKEGHLYFVTEDRNNEIYLWDFTDKPKHEFKEIITSVELQKVAKEGAMLQYKNGKYELYS”: the “soluble fraction (log2)” value is -0.78.

On to “HMKFDVNAAIRAVLNVTVDKGATLERIMKETNLTSDQLVLPIALLMKTERLHFKRSGTHEVYVSVGKAPDK”, for which the “soluble fraction (log2)” value was -3.79.

In the case of “HMKFGEQIKERRQELDLTQAEVAEKLFVTRQAVSNWEHNKTYPDLNMLVKISNVYQISLDSLLR”, the “soluble fraction (log2)” value is -1.37.

On to “HMKFHENLIALRRREGWSQEELGNRIGVTRQTVSKWELGLTTPELEKLVQLADVFGMTTDQLVGR”, for which the “soluble fraction (log2)” value is -0.295.
